{
  "source": "paper PMC12583452",
  "about": "“MCM5 UFMylation regulates replication origin firing and fork progression” (The EMBO Journal, 2025)",
  "binders": {"B1": {"name": "GST-MCM5 (natural protein, human, UniProt P33992 1-734, looked up)", "chain": "MSGFDDPGIFYSDSFGGDAQADEGQARKSQLQRRFKEFLRQYRVGTDRTGFTFKYRDELKRHYNLGEYWIEVEMEDLASFDEDLADYLYKQPAEHLQLLEEAAKEVADEVTRPRPSGEEVLQDIQVMLKSDASPSSIRSLKSDMMSHLVKIPGIIIAASAVRAKATRISIQCRSCRNTLTNIAMRPGLEGYALPRKCNTDQAGRPKCPLDPYFIMPDKCKCVDFQTLKLQELPDAVPHGEMPRHMQLYCDRYLCDKVVPGNRVTIMGIYSIKKFGLTTSRGRDRVGVGIRSSYIRVLGIQVDTDGSGRSFAGAVSPQEEEEFRRLAALPNVYEVISKSIAPSIFGGTDMKKAIACLLFGGSRKRLPDGLTRRGDINLLMLGDPGTAKSQLLKFVEKCSPIGVYTSGKGSSAAGLTASVMRDPSSRNFIMEGGAMVLADGGVVCIDEFDKMREDDRVAIHEAMEQQTISIAKAGITTTLNSRCSVLAAANSVFGRWDETKGEDNIDFMPTILSRFDMIFIVKDEHNEERDVMLAKHVITLHVSALTQTQAVEGEIDLAKLKKFIAYCRVKCGPRLSAEAAEKLKNRYIIMRSGARQHERDSDRRSSIPITVRQLEAIVRIAEALSKMKLQPFATEADVEEALRLFQVSTLDAALSGTLSGVEGFTSQEDQEMLSRIEKQLKRRFAIGSQVSEHSIIKDFTKQKYPEHAIHKVLQLMLRRGEIQHRMQRKVLYRLK", "notes": "human MCM5 in pGEX-4T-1; the GST construct is probably the same insert; also called pGEX-4T-1 MCM5; WT GST-MCM5; source: E. coli BL21, purified (Glutathione-Sepharose 4B)"}, "B2": {"name": "CDC45 (endogenous, HeLa) (natural protein, human (endogenous in HeLa), UniProt O75419 1-566, looked up)", "chain": "MFVSDFRKEFYEVVQSQRVLLFVASDVDALCACKILQALFQCDHVQYTLVPVSGWQELETAFLEHKEQFHYFILINCGANVDLLDILQPDEDTIFFVCDTHRPVNVVNVYNDTQIKLLIKQDDDLEVPAYEDIFRDEEEDEEHSGNDSDGSEPSEKRTRLEEEIVEQTMRRRQRREWEARRRDILFDYEQYEYHGTSSAMVMFELAWMLSKDLNDMLWWAIVGLTDQWVQDKITQMKYVTDVGVLQRHVSRHNHRNEDEENTLSVDCTRISFEYDLRLVLYQHWSLHDSLCNTSYTAARFKLWSVHGQKRLQEFLADMGLPLKQVKQKFQAMDISLKENLREMIEESANKFGMKDMRVQTFSIHFGFKHKFLASDVVFATMSLMESPEKDGSGTDHFIQALDSLSRSNLDKLYHGLELAKKQLRATQQTIASCLCTNLVISQGPFLYCSLMEGTPDVMLFSRPASLSLLSKHLLKSFVCSTKNRRCKLLPLVMAAPLSMEHGTVTVVGIPPETDSSDRKNFFGRAFEKAAESTSSRMLHNHFDLSVIELKAEDRSKFLDALISLLS", "notes": "CDC45 (cell division cycle 45), endogenous in HeLa; also called cell division cycle 45; source: endogenous, HeLa (fixed cells for PLA; chromatin fraction)"}},
  "key": {"His-UFL1": {"biological_target": "T1, His-UFL1 (UniProt O94874 1-794)", "T1 construct": "UFL1; construct pet28a-UFL1; also called pet28a-UFL1; source: E. coli BL21, purified (Ni-NTA agarose)", "T1 sequence (looked up)": "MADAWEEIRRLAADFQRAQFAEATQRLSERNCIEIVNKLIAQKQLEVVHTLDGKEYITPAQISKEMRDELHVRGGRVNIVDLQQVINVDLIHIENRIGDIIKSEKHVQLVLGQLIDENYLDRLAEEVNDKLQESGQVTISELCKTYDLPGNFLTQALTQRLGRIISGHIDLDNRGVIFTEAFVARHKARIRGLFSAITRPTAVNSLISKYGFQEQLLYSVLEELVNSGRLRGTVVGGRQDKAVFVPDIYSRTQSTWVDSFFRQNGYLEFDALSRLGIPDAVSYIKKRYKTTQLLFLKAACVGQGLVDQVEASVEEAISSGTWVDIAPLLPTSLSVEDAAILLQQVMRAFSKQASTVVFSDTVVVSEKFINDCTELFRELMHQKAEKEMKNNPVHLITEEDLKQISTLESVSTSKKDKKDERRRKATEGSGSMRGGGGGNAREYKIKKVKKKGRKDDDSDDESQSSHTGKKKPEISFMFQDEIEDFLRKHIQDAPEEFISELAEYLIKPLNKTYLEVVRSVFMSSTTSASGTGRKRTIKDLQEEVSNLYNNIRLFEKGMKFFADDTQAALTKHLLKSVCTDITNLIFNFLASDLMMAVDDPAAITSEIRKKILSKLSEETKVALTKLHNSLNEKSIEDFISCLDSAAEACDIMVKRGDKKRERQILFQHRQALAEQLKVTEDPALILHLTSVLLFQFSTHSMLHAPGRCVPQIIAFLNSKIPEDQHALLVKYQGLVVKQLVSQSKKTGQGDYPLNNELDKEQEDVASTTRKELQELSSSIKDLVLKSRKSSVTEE", "experiment": "pull-down; GST pull-down in vitro with purified GST-MCM5 and His-UFL1; bead-associated proteins analysed by western blot", "conditions": "both partners purified"}, "[1]": {"biological_target": "T2, FLAG-MCM5 (K583R), expressed in HeLa cells (human, UniProt P33992 1-734, K583R)", "T2 construct": "human MCM5, full-length cDNA in a pcDNA3.0 3XFLAG vector, point mutation K583R (UFMylation-resistant); also called KR; Lys583Arg; source: HeLa, transfected; in fixed cells (PLA) and in the chromatin fraction (IP)", "T2 sequence (looked up)": "B1 chain with K583R", "experiment": "proximity ligation; HeLa cells transfected with FLAG-VEC, FLAG-MCM5 (WT) or FLAG-MCM5 (K583R), 1 h after release from double-thymidine block; PLA with CDC45", "conditions": "partners not purified"}},
  "note": "Substitutions are numbered along the chain they refer to.",
  "data": [
    {"binder": "B1", "values": [
      {"measurement": "binding result", "setting": "His-UFL1", "result": "binds"}
    ]},
    {"binder": "B2", "values": [
      {"measurement": "fold decrease in PLA foci per cell against WT MCM5", "setting": "[1]", "result": 4, "unit": "fold"}
    ]}
  ]
}
